The text below walks through data of patent publication EP3024460B1 (Immunomedics, Inc., dated 2020).

Experiment [1] concerns the target T1, CD74 (human, UniProt P04233 1-296).
T1 construct: whole, on cells; Endogenous antigen of human tumor cell lines; measured on the surface or, after permeabilization, surface and cytoplasmic; also called invariant chain; Ii
T1 sequence (looked up): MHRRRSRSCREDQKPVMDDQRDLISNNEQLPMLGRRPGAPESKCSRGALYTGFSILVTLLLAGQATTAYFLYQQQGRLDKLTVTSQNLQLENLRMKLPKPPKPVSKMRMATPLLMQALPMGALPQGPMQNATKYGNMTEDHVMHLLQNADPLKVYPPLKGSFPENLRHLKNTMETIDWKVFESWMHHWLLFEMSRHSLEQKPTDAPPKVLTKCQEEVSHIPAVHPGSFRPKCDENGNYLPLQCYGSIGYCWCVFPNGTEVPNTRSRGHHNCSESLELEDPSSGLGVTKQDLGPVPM
Briefly: cell binding to antigen-positive cells (cell line not stated).

The target in experiment [2] is CD22 (human) (UniProt P20273). As to the kind of experiment: cell-based or functional assay.
The target of experiment [3] is T1, CD74. Briefly: cell-based or functional assay.
Experiment [4] concerns the target T1, CD74. As to the kind of experiment: flow cytometry, surface and cytoplasmic CD74 in permeabilized Raji cells. A general note: In flow cytometry, cells or beads pass a laser one at a time.
In experiment [5] the target is T1, CD74. As to the kind of experiment: flow cytometry, surface and cytoplasmic CD74 in permeabilized Capan-1 cells.
In experiment [6] the target is T1, CD74. As to the kind of experiment: flow cytometry, surface and cytoplasmic CD74 in permeabilized A-375 cells.
Experiment [7] deals with T1, CD74. As to the kind of experiment: flow cytometry, surface and cytoplasmic CD74 in permeabilized NCI-N87 cells.
Experiment [8] has as its target T1, CD74. Briefly: flow cytometry, surface CD74 on Hep-G2 cells.
For experiment [9], the target named is T1, CD74. Briefly: flow cytometry, surface CD74 on HuH-7 cells.
Experiment [10] has as its target T1, CD74. Briefly: flow cytometry, surface and cytoplasmic CD74 in permeabilized Hs746T cells.
Experiment [11] deals with T1, CD74. As to the kind of experiment: flow cytometry, surface CD74 on A-375 cells.
Experiment [12] has as its target T1, CD74. As to the kind of experiment: flow cytometry, surface CD74 on Hs746T cells.
Experiment [13] addresses T1, CD74. As to the kind of experiment: flow cytometry, surface CD74 on Capan-1 cells.
Experiment [14] has as its target T1, CD74. Briefly: flow cytometry, surface and cytoplasmic CD74 in permeabilized Hep-G2 cells.
The target of experiment [15] is T1, CD74. Briefly: flow cytometry, surface and cytoplasmic CD74 in permeabilized HuH-7 cells.
The target of experiment [16] is T1, CD74. As to the kind of experiment: flow cytometry, surface CD74 on Raji cells.
The target in experiment [17] is T1, CD74. Briefly: flow cytometry, surface CD74 on NCI-N87 cells.
Experiment [18] addresses Human trophoblast cell-surface antigen (TROP-2) (human) (UniProt P09758). Briefly: cell-based or functional assay.
The target is the same in experiment [19]. As to the kind of experiment: cell binding assay on TROP-2-expressing cells.
For experiment [20] the target is unchanged. As to the kind of experiment: FACS on PC-3 cells; background 5.5.
For experiment [21] the target is unchanged. As to the kind of experiment: FACS on SK-MES-1 cells; background 3.5.
The target is the same in experiment [22]. Briefly: flow cytometry, surface of Capan-1 cells.
Experiment [23] has the same target. Briefly: FACS on Capan-1 cells.
The target is the same in experiment [24]. As to the kind of experiment: FACS on COLO 205 cells.
For experiment [25] the target is unchanged. As to the kind of experiment: FACS on COLO 205 cells; background 4.5.
The target is the same in experiment [26]. As to the kind of experiment: FACS on SK-MES-1 cells.
Experiment [27] shares this target. As to the kind of experiment: flow cytometry, surface of NCI-N87 cells.
The target is the same in experiment [28]. Briefly: FACS on BxPC-3 cells.
For experiment [29] the target is unchanged. As to the kind of experiment: FACS on PC-3 cells.
The target is the same in experiment [30]. As to the kind of experiment: FACS on Calu-3 cells; background 4.7.
For experiment [31] the target is unchanged. Briefly: FACS on BxPC-3 cells; background 3.1.
The target is the same in experiment [32]. As to the kind of experiment: FACS on Capan-1 cells; background 5.0.
For experiment [33] the target is unchanged. As to the kind of experiment: FACS on Calu-3 cells.

Usually Kd stands for the equilibrium constant for the complex coming apart.

Chain of Human trophoblast cell-surface antigen (TROP-2) (human) (P09758 27-323): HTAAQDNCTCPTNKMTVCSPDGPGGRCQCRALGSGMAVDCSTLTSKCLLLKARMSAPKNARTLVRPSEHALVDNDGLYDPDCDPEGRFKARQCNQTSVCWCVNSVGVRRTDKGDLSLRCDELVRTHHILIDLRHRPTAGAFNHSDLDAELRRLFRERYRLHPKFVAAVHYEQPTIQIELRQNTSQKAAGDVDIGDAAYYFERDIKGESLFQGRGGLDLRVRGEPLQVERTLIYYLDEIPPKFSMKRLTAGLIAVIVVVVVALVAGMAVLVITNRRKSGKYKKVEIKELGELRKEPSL

milatuzumab-CL2A-SN-38 (antibody) had a Kd in experiment [1] of 0.59 nM.

In [2], Emab-CL2E-SN-38 (antibody) showed an in vitro cytotoxicity (MTS assay), potency against the nonbinding control conjugate of 2 fold.

milatuzumab-CL2E-SN-38 (antibody) registered an in vitro cytotoxicity (MTS assay), potency against free SN-38 in 4 solid tumor cell lines (fold lower potency than free SN-38) in experiment [3] of 7 to 16. For the same molecule, in [1], the Kd stood at 0.8 nM.

B1: Milatuzumab (antibody, V domains shown)
VH: QVQLQQSGSELKKPGASVKVSCKASGYTFTNYGVNWIKQAPGQGLQWMGWINPNTGEPTFDDDFKGRFAFSLDTSVSTAYLQISSLKADDTAVYFCSRSRGKNEAWFAYWGQGTLVTVSS
VL: DIQLTQSPLSLPVTLGQPASISCRSSQSLVHRNGNTYLHWFQQRPGQSPRLLIYTVSNRFSGVPDRFSGSGSGTDFTLKISRVEAEDVGVYFCSQSSHVPPTFGAGTRLEIK
As to B1, the “MFI Ratio hLL1:bkgd” value in experiment [4] came to 28.6; in [5], 49.6; in [6], 30.8; in experiment [7], 36.7; in experiment [8], 1.5; in experiment [9] it was 1.6. In addition, the “MFI Ratio hLL1:bkgd” value in experiment [10] turned out to be 28.8; in [11] it was 5.3; in [12], 2.1; in [13] it was 1.8; in [14], 31.2; in [15], 28.5. In addition, the “MFI Ratio hLL1:bkgd” value turned out to be 19.6 in experiment [16] and 1.3 in [17]. The Kd in experiment [1] is 0.77 nM.

B2: hRS7-CL2A-SN-38 (antibody, INN chains, looked up, V domains shown, part only)
VH: QVQLQQSGSELKKPGASVKVSCKASGYTFTNYGMNWVKQAPGQGLKWMGWINTYTGEPTYTDDFKGRFAFSLDTSVSTAYLQISSLKADDTAVYFCARGGFGSSYWYFDVWGQGSLVTVSS
VL: DIQLTQSPSSLSASVGDRVSITCKASQDVSIAVAWYQQKPGKAPKLLIYSASYRYTGVPDRFSGSGSGTDFTLTISSLQPEDFAVYYCQQHYITPLTFGAGTKVEIK
modifications: SN-38 via CL2A linker (sacituzumab govitecan)
Regarding B2, in experiment [18], the ADC/free SN-38 ratio (IC50, in vitro cytotoxicity), Calu-3 stood at 1.39 and the ADC/free SN-38 ratio (IC50, in vitro cytotoxicity), SK-MES-1 was 2.69. In experiment [19], this molecule gave a dissociation constant Kd of 1.2 nM.

B3: Humanized RS7 IgG (antibody, INN chains, looked up, V domains shown, part only)
VH: B2 VH
VL: B2 VL
modifications: IgG1
As to B3, the Median fluorescence in [20] was 46.2; in experiment [21] it was 44; in experiment [25], 142; in [30] it was 282; in [31], 26.4; in [32] it was 100. The results for the MFI in experiment [22] and in experiment [27] were 237 and 795, respectively. Also, the Percent positive in [23] is 94.2%; in experiment [24] it was 99.5%; in experiment [26], 91.2%; in experiment [28], 98.3%; in [29], 73.6%; in [33], 99.6%.

B4: hRS7-CL2-SN-38 (antibody, INN chains, looked up, V domains shown, part only)
VH: B2 VH
VL: B2 VL
modifications: SN-38 via CL2 linker
Take B4: the Kd in [19] stood at 1.2 nM.
